Test system: MS2 coat protein
Test: apparent KD of MS2 coat protein; designed switch direction (-1 OFF switch, 1 ON switch): -1; higher = weaker reporter binding
Summary of the method: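 Apparent KD, taken as the median over clusters for each design, was obtained by curve-fitting normalised cluster fluorescence. Designed RNA switches had been transcribed on Illumina chips by stalled E. coli RNA polymerase and titrated with SNAP-549-labelled MS2 coat protein, doubling from 0.7 or 1.5 nM to 3 µM.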

[1] = Eterna round: R95, input ligand: FMN 200 uM
[2] = Eterna round: R95, input ligand: microRNA oligo, concentration not stated
[3] = Eterna round: R95, input ligand: none
[4] = input ligand: microRNA oligo, concentration not stated

| Sequence | apparent KD of MS2 coat protein [2] [nM] | apparent KD of MS2 coat protein (input ligand: FMN 200 uM) [nM] | apparent KD of MS2 coat protein (input ligand: none) [nM] | further results |
| --- | --- | --- | --- | --- |
| GUAAAGUGAGGAUAUGGUAAAGUAAUUAUUUAGUAAUUAAUCCAGAAGGCACAUGAGGAUCACCCAUGUAAAUG [Mat - Exclusion 4 - D96] (puzzle: Exclusion 4) | 26.1 |  |  | apparent KD of MS2 coat protein [1]: 44.6 nM; apparent KD of MS2 coat protein [3]: 28.7 nM |
| GUAAAGUGAGGAUAUGGUGAGUAGUGCCUGAGCGCUGCUCACCAGAAGGCACAUGAGGAUCACCCAUGUAUAGC [Mat - Exclusion 4 - Mod of JL - D17] (puzzle: Exclusion 4) | 14 |  |  |  |
| GUAGAGUAAGGAUAUCAUGAAUAGGAUAGAAUGGUUAGAAAUGAGAAGGUACAUGAGGAUCACCCAUGUAAUGU [Excluse me!!!! 12 - Jieux - Exclusion 4] (puzzle: Exclusion 4) | 21.6 |  |  | apparent KD of MS2 coat protein [1]: 20.5 nM; apparent KD of MS2 coat protein [3]: 17.1 nM |
| GUAGAGUAAGGAUAUGUUGAAUAGGAUAGAAUGGUUAGAAAGCAGAAGGUACAUGAGGAUCACCCAUGUAAUGU [Excluse me!!!! 14 - Jieux - Exclusion 4] (puzzle: Exclusion 4) | 21.4 |  |  |  |
| GUAGAGUAAGGAUAUUGUGAAUAGGAUAGAAUGGUUAGAAACGAGAAGGUACAUGAGGAUCACCCAUGUAAUGU [Excluse me!!!! 22 - Jieux - Exclusion 4] (puzzle: Exclusion 4) | 22.1 |  |  | apparent KD of MS2 coat protein [1]: 24.1 nM; apparent KD of MS2 coat protein [3]: 24.4 nM |
| GUAGAGUCAGGAUAUACAAGAUCGAUAGAUCAAAGGUCCAUACAUGAGGAUCACCCAUGUAGAAGGGACUCUAC [Mat - Exclusion 2 - Eli Mod - D9] (Eterna round: R97, puzzle: Exclusion 2) |  | 37.2 | 17.9 |  |
| GUAGAGUCAGGAUAUACGAAUAGAUCGAUAGAUCAAUCCAUACAUGAGGAUCACCCAUGUAGAAGGGACUCUAC [Mat - Exclusion 2 - Eli Mod - D15] (Eterna round: R97, puzzle: Exclusion 2) |  | 26.2 | 18.8 |  |
| GUAGCUUCGGCUACUACAAGCUUUUUGCUCGUCUUAUUAACAUGAGGAUCACCCAUGUUAAUGAGACCUCAUGUAUU [Sensor v3 - turn-off variant 2 - 6] (puzzle: Sensor v3, turn-off variant 2) | 17 |  |  | apparent KD of MS2 coat protein [1]: 13.4 nM; apparent KD of MS2 coat protein [3]: 10.9 nM |
| GUAGUGUGAGGAUAUGGUAAAGAUAAGAUGAUGAAAGAACUCCAGAAGGCACAUGAGGAUCACCCAUGUAGAUU [Mat - Exclusion 4 - Mod of JL - D26] (puzzle: Exclusion 4) | 19.7 |  |  | apparent KD of MS2 coat protein [1]: 49.8 nM; apparent KD of MS2 coat protein [3]: 26 nM |
| GUAUAUAGUGUGAGGAUAUGCUGGUCCUUGGAUCAGCAGAAGGCACAUGAGGAUCACCCAUGUAGUUUAUUAUG [Mat - Exclusion 4 - JL Mod - D8] (puzzle: Brourd's mod of Exclusion 4) | 20 |  |  |  |
| GUAUGUCUAGGAUAUAUAUUGGAAUGUCCGUGUCCUAGCCAACAUGAGGAUCACCCAUGUAGAAGGAGAUGUGU [Eternabot (L1) Solution 97] (Eterna round: R97, puzzle: Exclusion 2) |  | 43.5 | 52.8 |  |
| GUCACAUGGACAUAGGAUCACAUGAGGAUCACCCAUGUGACUAACAAGCUUUUUGCUCGUCUUAUGUCCAUGUGAAA [Stov1/15-A2] (Eterna round: R97, puzzle: Sensor, turn-off variant 1) |  | 14.1 | 13.2 |  |
| GUCACAUGGACAUAGGAUCACAUGAGGAUCACCCAUGUGACUAACAAGCUUUUUGUUCGUCUUAUGUCUAUGUGAAG [Stov1/16-B3] (Eterna round: R97, puzzle: Sensor, turn-off variant 1) |  | 13.1 | 16.9 |  |
| GUCAGACGAGGAUAUAGAUUUAGAUACAUGAGGAUCACCCAUGUAUACAUGUAUUUAGAUUUAGAAGGCGUCUGAC [E5/14-A4] (Eterna round: R97, puzzle: Exclusion 5) |  | 492 | 1360 |  |
| GUCAGCUCGUGAGGAUAUACAUCACUGCUUCGGCAGUGUAUUAAGAUCACAUGAGGAUCACCCAUGUAGAAGGCACGAGCUGAU [ENG2/2-A2] (Eterna round: R96, puzzle: Exclusion NG 2) |  | 1020 | 39 | apparent KD of MS2 coat protein [4]: 27.6 nM |
| GUCAGCUCGUGAGGAUAUGAACAUGAGGAUCACCCAUGUAAGAUCAAGCUGCUUCGGCAGCAAGUUCAGAAGGCACGAGCUGAC [ENG2/10-A1] (Eterna round: R96, puzzle: Exclusion NG 2) |  | 221 | 134 | apparent KD of MS2 coat protein [4]: 85.8 nM |
| GUCAUCAAACAUGGGAUAAACAUGAGGAUCACCCAUGUUAACAAGUUUUUUGCUCGUCUUAUAAUAAGUUUGAUGAC [Antenna 11 - Jieux - Sensor, turn-off variant 1] (Eterna round: R97, puzzle: Sensor, turn-off variant 1) |  | 12.4 | 13.5 |  |
| GUCAUCACACAUGGGAUCAACAUGAGGAUCACCCAUGUUGUCAAGUUUUUUGCUCGUCUUAUAAUACGUUUGAUGAG [Mod-Jxd] (Eterna round: R97, puzzle: Sensor, turn-off variant 1) |  | 135 | 154 |  |
| GUCCAGUUAGGAUAUCAAUGCCACAACAUGAGGAUCACCCAUGUUUGGGUCCCUCACCAAUGAGAAGGAACGGGAC [Esteenedso] (puzzle: Exclusion 5) | 32.1 |  |  |  |
| GUCCUGGCUUUUCACAGGCACAUGAGGAUCACCCAUGUCGUGGGUAGAUCCCUCCCUGGGAAAUCUGCUCGUCUUAU [Cac Sensor turn off v1 sub12] (Eterna round: R97, puzzle: Sensor, turn-off variant 1) |  | 78.9 | 84.6 |  |
| GUCGAGUGAGGAUAUGGUGAGUAGUGCCUGAGCGCUGCUCACCAGAAGGCACAUGAGGAUCACCCAUGUAUGUC [JL-ex4-2.04 denovo] (puzzle: Exclusion 4) | 12.3 |  |  |  |
| GUCGAUGUCAAAGGAUAUCAGCACGUUUAGUGCUGAGAAGGUUGAACAUGAGGAUCACCCAUGUAGAUCAUUAACGACUUAAUU [ENG1/10-A1] (Eterna round: R96, puzzle: Exclusion NG 1) |  | 44.5 | 20.7 | apparent KD of MS2 coat protein [4]: 15.7 nM |
| GUCGCUAGAGGAUAUACAAUGGUAUAUGAUCCUAGUGACAUACAUGAGGAUCACCCAUGUAGAAGGCUAGUAUU [Exclusion 2 - 8] (puzzle: Exclusion 2) | 23.7 |  |  |  |

— the supplement of paper PMC9170038
